Test results as given in patent US20180215825A1 (BEIGENE, published 2018).
Positions count from the first letter of the chain named.

T1: human FcγRIIAR131 expressed on HEK293 cells (human, UniProt P12318 34-317)
T1 construct: whole, on cells
T1 sequence (looked up): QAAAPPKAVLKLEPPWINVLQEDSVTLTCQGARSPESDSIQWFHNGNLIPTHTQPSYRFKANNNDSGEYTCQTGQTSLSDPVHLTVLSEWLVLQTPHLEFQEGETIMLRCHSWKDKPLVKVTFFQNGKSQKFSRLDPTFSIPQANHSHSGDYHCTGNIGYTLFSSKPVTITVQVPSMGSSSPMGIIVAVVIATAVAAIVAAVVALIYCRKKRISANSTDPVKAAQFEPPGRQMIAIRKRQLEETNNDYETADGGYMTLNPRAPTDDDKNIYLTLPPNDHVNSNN

T2: human FcγRIIB expressed on HEK293 cells (human, UniProt P31994 43-310)
T2 construct: whole, on cells
T2 sequence (looked up): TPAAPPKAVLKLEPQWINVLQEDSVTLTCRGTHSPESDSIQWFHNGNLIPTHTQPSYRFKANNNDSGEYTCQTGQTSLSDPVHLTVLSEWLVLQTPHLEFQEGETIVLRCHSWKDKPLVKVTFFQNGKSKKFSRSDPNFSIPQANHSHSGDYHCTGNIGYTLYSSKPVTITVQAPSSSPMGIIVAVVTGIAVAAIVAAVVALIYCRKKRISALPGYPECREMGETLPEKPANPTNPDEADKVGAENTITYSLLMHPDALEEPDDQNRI

T3: human FcγRIIAH131 expressed on HEK293 cells (human, UniProt P12318 34-317)
T3 construct: whole, on cells
T3 sequence (looked up): T1 sequence (looked up) with R134H

B1: hu333-4B2-IgG1mc (antibody)
heavy: EVQLVESGGGLVQPGGSLRLSCAVSGFSLTSYGVHWVRQAPGKGLEWVAVIWAGGSTNYADSVKGRFTISKDTSKNTVYLQMNSLRAEDTAVYYCAKPYGTSAMDYWGQGTLVTVSSASTKGPSVFPLAPSSKSTSGGTAALGCLVKDYFPEPVTVSWNSGALTSGVHTFPAVLQSSGLYSLSSVVTVPSSSLGTQTYICNVNHKPSNTKVDKKVEPKSCDKTHTCPPCPAPPAAAPSVFLFPPKPKDTLMISRTPEVTCVVVDVSHEDPEVKFNWYVDGVEVHNAKTKPREEQYNSTYRVVSVLTVLHQDWLNGKEYKCKVSNKALAAPIEKTISKAKGQPREPQVYTLPPSRDELTKNQVSLTCLVKGFYPSDIAVEWESNGQPENNYKTTPPVLDSDGSFFLYSKLTVDKSRWQQGNVFSCSVMHEALHNHYTQKSLSLSPGK
light: DIQMTQSPSSLSASVGDRVTITCKASQDVGIVVAWYQQKPGKAPKLLIYWASIRHTGVPSRFSGSGSGTEFTLTISSLQPDDFATYYCQQYSNYPLYTFGQGTKVEIKRTVAAPSVFIFPPSDEQLKSGTASVVCLLNNFYPREAKVQWKVDNALQSGNSQESVTEQDSKDSTYSLSSTLTLSKADYEKHKVYACEVTHQGLSSPVTKSFNRGEC
B2: hu333-4A2-IgG1mc (antibody)
heavy: B1 heavy with A60V, T73N, S74A
light: B1 light
B3: hu333-4B2-IgG1mf (antibody)
heavy: B1 heavy with A236G
light: B1 light
B4: hu333-4A2-IgG1wt (antibody)
heavy: not shown
VL: DIQMTQSPSSLSASVGDRVTITCKASQDVGIVVAWYQQKPGKAPKLLIYWASIRHTGVPSRFSGSGSGTEFTLTISSLQPDDFATYYCQQYSNYPLYTFGQGTKVEIK
notes: light chain constant region (kappa) not tied to an entry for this form

The binders below were run against T4, human PD-L1, full length, expressed on cells (human, UniProt Q9NZQ7 19-290) (assay: cell-based or functional assay).
T4 sequence (Q9NZQ7 19-290 limits assumed): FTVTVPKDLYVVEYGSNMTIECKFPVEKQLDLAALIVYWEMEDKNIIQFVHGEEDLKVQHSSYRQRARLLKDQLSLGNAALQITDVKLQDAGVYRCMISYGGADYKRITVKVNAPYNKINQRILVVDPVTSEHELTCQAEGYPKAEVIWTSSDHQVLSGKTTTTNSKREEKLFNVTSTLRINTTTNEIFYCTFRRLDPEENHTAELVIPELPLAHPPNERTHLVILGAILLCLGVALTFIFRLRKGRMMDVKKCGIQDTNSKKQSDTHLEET

Row | IL-2 release in HuT78/P3Z: IC50 | IL-2 release in HuT78/P3Z: Max inhibition | IL-2 release in HuT78/PD-1: EC50 | IL-2 release in HuT78/PD-1: Top line | Binder
1 | 0.039 µg/mL | 99% | 0.084 µg/mL | 300 pg/mL | B1
2 | 0.045 µg/mL | 99% | 0.087 µg/mL | 299 pg/mL | B2
3 | 0.037 µg/mL | 99% | 0.075 µg/mL | 287 pg/mL | B3

What follows are binders tested against T1, human FcγRIIAR131 expressed on HEK293 … (assay: FACS, monomeric mAb on FcγR-expressing HEK293 cells).
Description: (§1) Bindings of humanized anti-PD-L1 in various IgG1 formats (wt, IgG1mc, IgG1mf, SEQ. NO. 27-29) to FcγRs were also determined by flow cytometry. In brief, a series of stable HEK293 transfectants expressing human FcγRs were established. These stable cell lines expressed FcγRI, FcγRIIAH131, FcγRIIAR131, FcγRIIB, FcγRIIIAF158 or FcγRIIIAV158, respectively. Multi-subunit FcγRs (i.e., FcγRI and FcγRIIIA) were co-expressed with FcRγ subunit.

Row | MFI | Binder
4 | 15.1 MFI | B4
5 | 3.64 MFI | B1
6 | 3.8 MFI | B2
7 | 3.99 MFI | B3

These binders were tested against T2, human FcγRIIB expressed on HEK293 cells in the same assay as above.
Description: as §1

Row | MFI | Binder
8 | 19 MFI | B4
9 | 4.49 MFI | B1
10 | 3.71 MFI | B2
11 | 3.73 MFI | B3

Each binder was assayed against T5, human FcγRIIIAF158 expressed on HEK293 cells (human, UniProt P08637 17-254) in the same assay as above.
T5 construct: whole, on cells; Co-expressed with FcRγ subunit
T5 sequence (P08637 17-254): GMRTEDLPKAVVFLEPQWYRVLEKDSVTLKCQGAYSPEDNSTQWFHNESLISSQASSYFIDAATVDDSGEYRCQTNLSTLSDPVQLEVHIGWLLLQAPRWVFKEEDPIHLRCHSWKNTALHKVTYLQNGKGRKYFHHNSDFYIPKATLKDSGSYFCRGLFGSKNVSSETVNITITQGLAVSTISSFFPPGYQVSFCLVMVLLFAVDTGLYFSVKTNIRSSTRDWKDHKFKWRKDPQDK
Description: as §1

Row | MFI | Binder
12 | 29.4 MFI | B4
13 | 5.42 MFI | B1
14 | 5.2 MFI | B2
15 | 5.09 MFI | B3

Each binder was assayed against T6, human FcγRIIIAV158 expressed on cells (human, UniProt P08637 17-254) in the same assay as above.
T6 construct: whole, on cells; Co-expressed with FcRγ subunit; on HEK293 cells in the FACS assays, on NK92MI/CD16V cells in the ADCC assay; also called CD16 (V158 allele)
T6 sequence (P08637 17-254 F176V limits assumed): as the sequence (P08637 17-254) above, with F160V counted along it
Description: as §1

Row | MFI | Binder
16 | 91.7 MFI | B4
17 | 4.14 MFI | B1
18 | 3.87 MFI | B2
19 | 3.91 MFI | B3

The binders below were run against T4, human PD-L1, full length, expressed on … (assay: FACS competition with CD80/Fc on HEK293/PD-L1 cells).

Row | IC50 | Max inhibition | Binder
20 | 0.103 µg/mL | 100% | B1
21 | 0.078 µg/mL | 100% | B2
22 | 0.118 µg/mL | 100% | B3

What follows are binders tested against T3, human FcγRIIAH131 expressed on HEK293 … (assay: FACS, monomeric mAb on FcγR-expressing HEK293 cells, goat anti-human IgG F(ab')2-Alexa Fluor 488 detection).
Description: as §1

Row | binding result | Binder
23 | no binding | B1
24 | no binding | B2
25 | no binding | B3

What follows are binders tested against T6, human FcγRIIIAV158 expressed on cells in the same assay as above.
Description: as §1

Row | binding result | Binder
26 | no binding | B1
27 | no binding | B2
28 | no binding | B3

The binders below were run against T7, human FcγRI expressed on HEK293 cells (human, UniProt P12314 16-374) (assay: FACS, 10 µg/mL mAb as immune complex with biotin-PD-L1/His and neutravidin on FcγR-expressing HEK293 cells).
T7 construct: whole, on cells; Co-expressed with FcRγ subunit
T7 sequence (P12314 16-374): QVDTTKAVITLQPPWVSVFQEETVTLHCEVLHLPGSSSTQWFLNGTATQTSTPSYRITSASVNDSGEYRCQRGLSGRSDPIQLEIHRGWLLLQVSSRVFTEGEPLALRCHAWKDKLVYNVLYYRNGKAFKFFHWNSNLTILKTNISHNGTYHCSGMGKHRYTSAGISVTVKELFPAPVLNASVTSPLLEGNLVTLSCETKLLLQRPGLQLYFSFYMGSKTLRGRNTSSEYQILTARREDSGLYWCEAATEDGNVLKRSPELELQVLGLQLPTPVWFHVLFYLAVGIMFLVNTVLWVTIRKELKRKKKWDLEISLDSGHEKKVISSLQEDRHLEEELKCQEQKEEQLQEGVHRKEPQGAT
Text: (§2) Such bindings are thought to be more relevant under physiological condition, as the binding strength between monomeric γFc and most of the FcγRs is very weak. Human immune system also takes advantage of this mechanism to avoid non-specific activation of FcγRs by monomeric IgG which are present at high levels in serum.

Row | MFI | Binder
29 | 3260 MFI | B4
30 | 7.01 MFI | B1
31 | 7 MFI | B2
32 | 7.11 MFI | B3

The binders below were run against T3, human FcγRIIAH131 expressed on HEK293 … in the same assay as above.
Text: as §2

Row | MFI | Binder
33 | 599 MFI | B4
34 | 8.09 MFI | B1
35 | 7.53 MFI | B2
36 | 7.27 MFI | B3

What follows are binders tested against T1, human FcγRIIAR131 expressed on HEK293 … in the same assay as above.
Text: as §2

Row | MFI | Binder
37 | 159 MFI | B4
38 | 5.28 MFI | B1
39 | 5.38 MFI | B2
40 | 4.92 MFI | B3

Each binder was assayed against T2, human FcγRIIB expressed on HEK293 cells in the same assay as above.
Text: as §2

Row | MFI | Binder
41 | 539 MFI | B4
42 | 5.03 MFI | B1
43 | 5.05 MFI | B2
44 | 5 MFI | B3

The binders below were run against T5, human FcγRIIIAF158 expressed on HEK293 … in the same assay as above.
Text: as §2

Row | MFI | Binder
45 | 74.2 MFI | B4
46 | 6.81 MFI | B1
47 | 6.44 MFI | B2
48 | 6.76 MFI | B3

The binders below were run against T6, human FcγRIIIAV158 expressed on cells in the same assay as above.
Text: as §2

Row | MFI | Binder
49 | 309 MFI | B4
50 | 4.89 MFI | B1
51 | 5.43 MFI | B2
52 | 4.83 MFI | B3
